The results in this text go back to patent US20260022165A1 (US Dept. of Health and Human Services, published 2026).

Positions count from the first letter of the chain named.

One test deals with T1, hFc-hC3d fusion protein (human, UniProt P01024 1002-1303, limits assumed).
T1 construct: domain: C3d; also called immobilized hC3d; not shown: human IgG Fc (hFc), captured by an anti-human IgG CH2 / Fcγ mAb
Kind of test: SPR (Biacore X100), Fab over captured hFc-hC3d. On the procedure: (§1) Kinetic and thermodynamic parameters characterizing the binding of purified Fabs to hC3d or mC3d was performed by surface plasmon resonance (SPR) in a Biacore X100 instrument (GE Healthcare). Using mouse anti-human IgG CH2 mAb immobilized on a CM5 sensor chip, hFc-hC3d or hFc-mC3d fusion proteins were captured at a density <400 RU. Each sensor chip included an empty flow cell for instantaneous background subtraction. All binding assays used 1×HBS-EP+ running buffer (10 mM HEPES, 150 mM NaCl, 3 mM EDTA (pH 7.4), and 0.05% (v/v) Surfactant P20) at a flow rate of 30 μL/min. […] Calculation of association (kₒₙ) and dissociation (koff) rate constants were based on a 1:1 Langmuir binding model. The equilibrium dissociation constant (KD) was obtained by the formula KD=koff/kₒₙ.

Another test concerns the target T2, hFc-mC3d fusion protein (human; mouse, UniProt P01027 1002-1303, limits assumed).
T2 construct: domain: C3d; not shown: human IgG Fc (hFc), captured by an anti-human IgG CH2 mAb
Kind of test: SPR (Biacore X100), Fab over captured hFc-mC3d. On the procedure: as §1

The target in test [1] is T3, human complement protein C3d (human, UniProt P01024 1002-1303).
T3 construct: domain: C3d; the 30 min deposits on zymosan are a mixture of C3b/iC3b/C3d that the text calls C3d; also called hC3d; human C3d
Kind of test: flow cytometry; His-tagged Fab on zymosan particles opsonized with human serum (C3b/iC3b/C3d); detection AF488 mouse anti-His mAb.
Method: (§2) C3-opsonized zymosan particles (1e6) were incubated with 100 μL of 1 ug/mL His-tagged Fabs in a 96-well V-bottom plate at 37° C. for 1 h. After three washes with PBST (0.05% v/v Tween 20 in PBS), 100 μL of mouse anti-His tag mAb conjugated to horse radish peroxidase (HRP) (R&D Systems, Minneapolis, MN) at 1:1000 dilution in 1% (w/v) BSA/DPBS was added to detect bound Fabs using 2,2′-azino-bis (3-ethylbenzthiazoline)-6-sulfonic acid (Roche/Milipore Sigma, St. Louis, MO) as substrate. The absorbance was measured at 405 nm using a SpectraMax M5 microplate reader and SoftMax Pro software (Molecular Devices, LLC, San Jose, CA). To test for the potential of C3 in NHS to block binding of the mAbs to C3-fragment opsonized zymosan, serial dilutions of NHS were premixed with the opsonized zymosan particles prior to addition of his-tagged Fabs and following the procedure described above.
The binding of rabbit antibodies (Fabs) was detected by flow cytometry following the same procedure described above except using a mouse anti-His tag mAb conjugated to AF488 (Qiagen, Valencia, CA).

Test [2] has as its target T4, full length human C3 present in plasma (human, UniProt P01024 23-1663).
T4 construct: mature; Not purified: it stood in the assay as dilutions of normal human serum; also called full-length, soluble C3; C3 in NHS
Kind of test: ELISA, competition; His-tagged Fab (1 ug/mL) on zymosan opsonized with human C3 fragments in the presence of normal human serum (printed PNHCS) at 1/10, 1/50, 1/250 as source of full-length C3; normalized to media without serum.
Method: Zymosan particles opsonized with human C3 fragments were suspended in media with indicated dilutions of NHS (1/10, 1/50 and 1/250) prior to addition of His-tagged anti-C3d Fab antibodies at 1 μg/mL. Mouse anti-His mAb conjugated with HRP was used to determine the binding signal of each Fab by ELISA. Data is normalized to media control containing no NHS.
as §2

T2 sequence (P01027 1002-1303 limits assumed): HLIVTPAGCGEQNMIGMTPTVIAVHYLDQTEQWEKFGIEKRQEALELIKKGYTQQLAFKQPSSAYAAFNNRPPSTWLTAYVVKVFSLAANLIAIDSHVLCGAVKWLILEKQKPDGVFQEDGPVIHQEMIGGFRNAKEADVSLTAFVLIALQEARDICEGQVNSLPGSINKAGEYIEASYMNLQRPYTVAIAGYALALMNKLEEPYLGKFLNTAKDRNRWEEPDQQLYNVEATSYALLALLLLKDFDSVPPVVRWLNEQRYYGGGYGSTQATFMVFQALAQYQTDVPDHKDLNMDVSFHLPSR

B1: Ab3 Fab (His-tagged rabbit/human chimeric anti-C3d Fab) (Fab, V domains shown)
VH: QKQLVESGGRLVTPGGSLTLTCTISGIDLNTYGMTWVRQAPGKGLEYIGIIVSSGNTYYANWAQGRFTISKTSTTVDLKMTSLTASDTATYFCARGLGRAYSSGYGMDGWGPGTLVTVSS
VL: DPVLTQTPSSTSAAVGGTVTIKCQASQNIYTSLAWYQQKPGQPPKLLIYGASNLASGVPSRFKGSRSGTEYTLTISGVEREDAATYYCLGSYTQIDTTFGGGTKLEIK
notes: Fab with rabbit Vκ/human Cκ/rabbit VH, His-tagged; also called Ab3 (κ)
In the test with hFc-hC3d fusion protein, B1 displayed a Kd of 13.3 nM, a dissociation rate constant (koff) of 0.00126 s⁻¹ and a kon of 94600 M⁻¹ s⁻¹. In the test with hFc-mC3d fusion protein, this molecule came in with an equilibrium dissociation constant (Kd) of 97.6 nM, a koff of 0.0227 s⁻¹ and a kon of 232000 M⁻¹ s⁻¹.

B2: Ab2 Fab (His-tagged rabbit/human chimeric anti-C3d Fab) (Fab, V domains shown)
VH: QSVEESGGRLVTPGTPLTLTCTVSGFSLSSYAMTWVRQAPGKGLEWIGVIGTSGMRYYANWAKGRFTISKTSTTVDLKITSPTTEDTATYFCARANFYVGNDESTDAFDPWGPGTLVTVSS
VL: ALVMTQTPPSLSASVGETVRIRCLASEDIYNTISWYQQKPGKPPTLLIYGASNLKSGVPPRFSGSGSGTDYTLTIGGVQSEDAATYYCLGGYSYSSTGLTFGAGTKVEIK
notes: Fab with rabbit Vκ/human Cκ/rabbit VH, His-tagged; also called Ab2 (κ)
Turning to B2, in the test with hFc-hC3d fusion protein, the Kd was determined as 3.35 nM, the koff came to 0.00054 s⁻¹ and the on-rate (kon) stood at 162000 M⁻¹ s⁻¹. In the test with hFc-mC3d fusion protein, this molecule gave a Kd of 9.04 nM, a koff of 0.00174 s⁻¹ and an association rate constant (kon) of 193000 M⁻¹ s⁻¹.

B3: Ab5 Fab (His-tagged rabbit/human chimeric anti-C3d Fab) (Fab, V domains shown)
VH: QSLEESGGRLVTPGTPLTLTCTVSGFSLSTYTLGWVRQAPGKGLEYIGWIDSSGSAYYASWAKGRFTISKASSTTVDLKMAGLTTEDTATYFCASGNTGGDPLYYGMDPWGPGTLVTVSS
VL: DPVLTQTPSSTSAAVGGTVTIKCQASQNIGRWLAWYQQKPGQPPKLLIYRASDLASGVPSRFKGSGSGTQFTLTISGVQREDAATYYCLGSYSSSDSAFGGGTEVVVK
notes: Fab with rabbit Vκ/human Cκ/rabbit VH, His-tagged; also called Ab5 (κ)
In the test with hFc-hC3d fusion protein, B3 yielded a dissociation constant Kd of 0.99 nM, a koff of 0.00014 s⁻¹ and an association rate constant (kon) of 141000 M⁻¹ s⁻¹. Moreover, in the test with hFc-mC3d fusion protein, the Kd was found to be 22.9 nM, the koff worked out at 0.00568 s⁻¹ and the on-rate (kon) was 248000 M⁻¹ s⁻¹.

B4: Ab4 Fab (His-tagged rabbit/human chimeric anti-C3d Fab) (Fab, V domains shown)
VH: B3 VH with T30R, L33M, G34A, A56T, A71T, A81T, G82S, T98D
VL: DGVMTQTPSSTSAAVGGTVTIKCQASQSIRSWLSWYQQKPGQPPKLLIYEASKLASGVPSRFKGSRSGTEYTLAISGVQREDAATYYCLGSIASDDTAFGAGTNVEIK
notes: Fab with rabbit Vκ/human Cκ/rabbit VH, His-tagged; also called Ab4 (κ)
Consider B4, for which, in the test with hFc-hC3d fusion protein, the Kd worked out at 3.1 nM, the off-rate (koff) amounted to 0.00028 s⁻¹ and the kon was 90900 M⁻¹ s⁻¹. In the test with hFc-mC3d fusion protein, binding was characterised by a dissociation constant (Kd) of 132 nM, the koff was found to be 0.00801 s⁻¹ and the kon was determined as 60600 M⁻¹ s⁻¹.

B5: Ab1 Fab (His-tagged rabbit/human chimeric anti-C3d Fab) (Fab, V domains shown)
VH: QSVEESRGRLVTPGTPLTLTCTVSGIDLSSSAITWVRQAPGKGLEWIGMISTDGATYYANWAKGRFTFSKTSTTADLKITSPTTEDTATYFCARGLTNFSIWGPGTLVTVSS
VL: QPVLTQSPSASAALGASAKLTCTLSSAHKTYTIAWYQQQPGESPRYLMLLKSDGSYTRGPGVPDRFSGSSSGADRYLIIPSVQADDEAGYYCGADYNGGYVFGGGTQLTVTG
notes: Fab from the phage display vector pC3C with rabbit Vλ/human Cλ/rabbit VH, His-tagged; also called Ab1 (λ)
On to B5, for which the binding result is “binds” in test [1] and “no binding (tested: serum dilution 1/10)” in test [2].
